Assays:
[1] = tested on: esterase; test: esterase cleavage of the C-3 ester; assay type: in vitro ADME
Text: Some linkers can be cleaved by esterases. Again only certain esters can be cleaved by esterases present inside or outside cells. Esters are formed by the condensation of a carboxylic acid and an alcohol. Simple esters are esters produced with simple alcohols, such as aliphatic alcohols, and small cyclic and small aromatic alcohols.

[2] = tested on: L1210 cells; conditions: treatment of L1210 cells in vivo; cited from earlier work
[3] = tested on: P388 murine leukemic cell suspension; conditions: in vitro; most sensitive line; cited from earlier work
[4] = tested on: L1210 murine leukemic cell suspension; conditions: in vitro; cited from earlier work
[5] = tested on: LY5178 murine leukemic cell suspension; conditions: in vitro; cited from earlier work
[6] = tested on: human nasopharyngeal carcinoma cells; conditions: cited from earlier work
[7] = tested on: human acute lymphoblastic leukemia line C.E.M.; conditions: cited from earlier work
[8] = tested on: P388 lymphocytic leukemia system; conditions: in vivo; cited from earlier work
[9] = tested on: L1210 mouse leukemia system; conditions: cited from earlier work
[10] = tested on: Lewis lung carcinoma system; conditions: cited from earlier work
[11] = tested on: human B-16 melanocarcinoma system; conditions: cited from earlier work
[12] = human, in vivo; cited from earlier work
[13] = plasma clearance of conjugates; assay type: in vivo; conditions: plasma, conjugate, FIG. 11
Text: This is in sharp contrast to plasma clearance of conjugates prepared with relatively labile disulfide bonds such as huC242-SPP-DM1. […] The non-cleavable SMCC linkage is therefore much more resistant to maytansinoid-linker cleavage activities present in vivo than the SPP-DM1 conjugate. […] This increased exposure could have substantial impact on drug efficacy in some cases.

[14] = acute toxicity test, single intravenous dose; assay type: in vivo, female CD-1 mice
Protocol: Maytansinoid conjugates prepared with non-cleavable linkers such as SMCC show an unexpected increased tolerability in mice compared with conjugates prepared with cleavable disulfide linkers. An acute toxicity test with a single intravenous dose was carried out in female CD-1 mice. A comparison of the tolerability of a huC242-SMCC-DM1 conjugate (non-cleavable) with huC242 conjugates prepared with linkers containing cleavable disulfide bonds was conducted by monitoring the death of mice (FIGS. 12A and B) and signs of toxicity (FIGS. 12C and D) over a series of four escalating doses of each conjugate. The maximum tolerated dose (MTD) for the SMCC-DM1 conjugate was greater than the highest dose tested (150 mg/kg) while the MTD for the disulfide-linked conjugate SPP-DM1 was in the range of 45-90 mg/kg.

[15] = tested on: COLO205 cells; test: cell cycle arrest by flow cytometry; assay type: cell-based, human; conditions: 30 hours post-treatment
Protocol: Maytansinoid conjugates are thought to impart their cell destroying activity through the inhibition of microtubule polymerization. This inhibition of microtubule polymerization leads to an arrest of the cell cycle principally at G2/M. The antigen-dependent arrest of cells at G2/M by antibody-maytansinoid conjugates can be monitored by flow cytometry analysis (FIG. 13). Treatment of COLO205 cells with huC242-SPP-DM1 or huC242-SMCC-DM1 conjugate results in a complete G2/M arrest by 6-10 hours. […] The difference in the durability of the activity of these two conjugates is also reflected in percentage of dead cells at the 30 hour time point, as judged by a dye exclusion assay using trypan blue.

[16] = tested on: COLO 205 cell line; test: cell destroying activity, antigen-positive cells (bystander study); assay type: cell-based, human; conditions: COLO 205 cultured separately
Text: (§1) An additional aspect of conjugates prepared with non-cleavable linkers compared to conjugates that have cleavable disulfide linkers is the absence of activity toward antigen-negative cells when in close proximity to antigen-positive cells, termed here the bystander effect. That is, the conjugates prepared with non-cleavable linkers have minimal bystander activity. […] This minimal bystander activity of the non-cleavable conjugate, as measured in this in vitro assay, may contribute to the increased tolerability of conjugate with non-cleavable linkers observed in acute toxicity studies.

[17] = tested on: Namalwa cells; test: cell destroying activity, antigen-negative cells (bystander study); assay type: cell-based
Text: as §1

[18] = Pharmacokinetic Studies of huC242-SPP-DM1 and huC242-SCC-DM1 conjugates inCD-1 Mice Plasma clearance curves and Pharmacokinetic parameters
Text: Table printed on a drawing sheet, FIG. 11
Title: Pharmacokinetic Studies of huC242-SPP-DM1 and huC242-SCC-DM1 conjugates inCD-1 Mice Plasma clearance curves and Pharmacokinetic parameters
First reader's note: Rows without -DM1 (huC242-SMCC, huC242-SPP) appear to be the antibody component of the same conjugates, as in the plot legend; study in CD-1 mice.

[19] = tested on: COLO 205 cells; test: indirect FACS binding assay on COLO 205 cells; design: species or system human; conditions: higher than free huC242 antibody; COLO 205 cells
Protocol: The inventors carried out binding and cytotoxicity studies on the huC242-non-S-containing non-cleavable linker-DM1 conjugate. First, the binding affinities of huC242 antibody, huC242-SMNP-DM3, and huC242-non-S-containing non-cleavable linker-DM1 to COLO 205 cells were compared. 5×10^3 cells per well were used, with a three hour primary incubation on ice. The huC242-non-S-containing non-cleavable linker-DM1 conjugate had about a two-fold higher apparent dissociation constant than free antibody (see FIG. 23).

[20] = in vitro clonogenic / indirect cytotoxicity assays, cell line not given; assay type: cell-based; conditions: for cytotoxicity in clonogenic assays in vitro: FIGS. 9, 22, 28
Text: Cell-binding agent maytansinoid conjugates of the invention can be evaluated for their ability to suppress proliferation of various cell lines in vitro. For example, cell lines such as the human colon carcinoma line COLO205, the human melanoma cell line A375, the human myeloid leukemia cell line HL60, the human breast carcinoma line SKBR3, or the human epidermoid carcinoma cell line KB can be used for the assessment of cytotoxicity of these conjugates. Cells to be evaluated can be exposed to the compounds for 24 hours and the surviving fractions of cells measured in direct assays by known methods. (See, e.g. Goldmacher et al., 135 J. Immunol. 3648-3651 (1985), and Goldmacher et al., 102 J. Cell Biol. 1312-1319 (1986).) IC50 values can then be calculated from the results of the assays.

Molecule: COc1cc2cc(c1Cl)N(C)C(=O)C[C@H](OC(=O)[C@H](C)N(C)C(C)=O)[C@]1(C)O[C@H]1[C@H](C)[C@@H]1C[C@@](O)(NC(=O)O1)[C@H](OC)/C=C/C=C(\C)C2 [Maytansine]
- cleavage of the ester at C-3 by esterases [1]: no esterase that cleaved the ester at C-3
- cells accumulating in mitosis [2]: 67%
- inhibitory doses [3]: 10^−3 to 10^−1 μg/ml
- inhibitory doses [4]: 10^−3 to 10^−1 μg/ml
- inhibitory doses [5]: 10^−3 to 10^−1 μg/ml
- inhibition of in vitro growth [6]: active inhibitor
- lowest inhibitory concentration [7]: 10^−7 μg/ml
- dosage range over which tumor growth was inhibited [8]: 50- to 100 fold
- inhibitory activity in vivo [9]: significant inhibitory activity
- inhibitory activity in vivo [10]: significant inhibitory activity
- inhibitory activity in vivo [11]: significant inhibitory activity
- clinical outcome / adverse effects [12]: not favorable due to a number of side effects

B1: huC242-SPP-DM1: huC242 DM1 conjugate with relatively labile cleavable disulfide linker SPP (conjugate, chains of the INN, looked up)
VH: QVQLVQSGAEVKKPGETVKISCKASDYTFTYYGMNWVKQAPGQGLKWMGWIDTTTGEPTYAQKFQGRIAFSLETSASTAYLQIKSLKSEDTATYFCARRGPYNWYFDVWGQGTTVTVSS
VL: DIVMTQSPLSVPVTPGEPVSISCRSSKSLLHSNGNTYLYWFLQRPGQSPQLLIYRMSNLVSGVPDRFSGSGSGTAFTLRISRVEAEDVGVYYCLQHLEYPFTFGPGTKLELK
modifications: DM1 via SPP disulfide linker
- half-life for clearance [13]: 40 to 50 h
- time by which lethal toxicity was observed for all mice ([14]; at 150 mg/kg, post-treatment): ≤ 96 h
- survival / lethal toxicity ([14]; at 150 mg/kg, single intravenous dose): lethal toxicity was observed for all mice
- maximum tolerated dose (MTD) ([14]; single intravenous dose, female CD-1 mice): 45 to 90 mg/kg
- durability of cell cycle arrest [15]: escape from cell cycle arrest and reinitiate cell division
- cell destroying activity [16]: potent cell destroying activity
- cell destroying activity ([17]; Namalwa cultured separately): no activity
- bystander cell destroying activity toward Namalwa cells ([17]; co-cultures of COLO 205 and Namalwa cells): dramatic cell destroying activity
- AUC | [18]: 9205.7 µg·h/mL
- CL | [18]: 1.1 mL/h/kg
- Cmax | [18]: 191.4 µg/mL
- Vss | [18]: 0.0926 L/kg
- t1/2 | hour [18]: 49.8 h

B2: huC242-non-S-containing non-cleavable linker-DM1: huC242 conjugated with a maytansinoid active ester forming a non-sulfur-containing non-cleavable linker (conjugate, chains of the INN, looked up)
VH: B1 VH
VL: B1 VL
modifications: DM1 via non-sulfur non-cleavable linker
- apparent dissociation constant relative to free antibody [19]: two
- in vitro cytotoxicity compared with huC242-SMNP-DM3 ([20]; FIG. 22): comparable to huC242-SMNP-DM3
- cytotoxicity in clonogenic assays in vitro [20]: potent and antigen-specific cytotoxicity
- IC50 ([20]; in vitro cytotoxicity, FIG. 22): 7 pM

B3: huC242-SIAB-DM1: huC242 conjugate of DM1 synthesized with the non-cleavable linker SIAB (conjugate, chains of the INN, looked up)
VH: B1 VH
VL: B1 VL
modifications: DM1 via SIAB linker
- cytotoxicity in clonogenic assays in vitro [20]: potent and antigen-specific cytotoxicity

Source: US8088387B2, “Method of targeting specific cell populations using cell-binding agent maytansinoid conjugates linked via a non-cleavable linker, said conjugates, and methods of making said conjugates” (Immunogen Inc., priority 2003, dated 2012)
